Measured values as given in publication doi:10.1101/2024.09.18.613542 (bioRxiv, 2024).
Where two headings read alike, the source gives them in different places.

T1: 8His-TEV-RoxP_1 (Cutibacterium acnes KPA171202)
T1 chain: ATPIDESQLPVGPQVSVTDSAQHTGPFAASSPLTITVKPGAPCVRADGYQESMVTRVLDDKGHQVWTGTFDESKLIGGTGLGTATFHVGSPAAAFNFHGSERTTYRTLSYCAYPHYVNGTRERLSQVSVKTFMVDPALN

T2: RoxP_11-tagless (Cutibacterium porci (WP_154564006.1))
T2 chain: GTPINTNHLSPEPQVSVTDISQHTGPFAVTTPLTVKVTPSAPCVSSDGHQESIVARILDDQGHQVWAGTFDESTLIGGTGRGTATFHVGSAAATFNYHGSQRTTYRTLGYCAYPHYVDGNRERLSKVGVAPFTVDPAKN


Key:
Test in all cases: ELISA
8His-TEV-RoxP_1 = target: T1, 8His-TEV-RoxP_1
RoxP_11-tagless = target: T2, RoxP_11-tagless
[1] = target: T3, endogenous RoxP secreted by C. acnes strain KPA171202 (Cutibacterium acnes KPA171202, UniProt Q6A6F6)
[2] = target: T4, endogenous RoxP secreted by C. acnes strain ATCC 6919 (Cutibacterium acnes ATCC 6919 …, UniProt Q6A6F6, strain)
[3] = target: T3, endogenous RoxP secreted by C. acnes …; remark: listed apart in the source
[4] = target: T4, endogenous RoxP secreted by C. acnes …; remark: listed apart in the source

Binder	binding result (8His-TEV-RoxP_1)	binding result (RoxP_11-tagless)	further results
2H2F3 (antibody, V domains shown) VH: QVQLQQSGAELVRPGVSVKISCKGSGYTFTDYAMHWVKQSHAKSLEWIGIISTYYGNASYNQKFKGKATMTVDKSSSTAYMELARLTSEDSAIYYCARVPYYGSSYAMDYWGQGTSVTVSS VL: DVLMTQTPLSLPVSLGDQASISCRSSQNIVHSDGNTYLEWYLQKPGQSPKLLIYKVSNRFSGVPDRFSGSGSGTDFTLKISRVEAEDLGVYYCFQGSHVPWTFGGGTKLEIK	binds	–	–
3E10E3 (antibody, V domains shown) VH: QVTLKESGPGILQPSQTLSLTCSFSGFSLSTYGIGVGWIRQPSGKGLEWLAHIWWNDNKYYNTALKSRLTISKDTSNNQVFLKIASVDTADTATYYCARSLPYFDYWGQGTTLTVSS VL: DIQMTQSPASLSASVGETVTITCRASENIYSYLAWYQQKQGKSPQFLVYNAKTLAEGVPSRFSGSGSGTQFSLKINSLQPEDFGSYYCQHHYGIPRTFGGGTKLEIK	binds	binds	–
4D8H1 (antibody, V domains shown) VH: EVKLLESGGGLVQPGGSLKLSCAASGFDFSRYWMSWVRQAPGKGLEWIGEINPDSSTINYTPSLKDKFIISRDNAKNTLYLQMSKVRSEDTALYYCARYYSRFAYWGQGTLVTVSA VL: QAVVTQESALTTSPGETVTLTCRSSTGAVTTRNYANWVQEKPDHLFTGLIGDTNNRAPGVPARFSGSLIGDKAALTITGAQTEDEAIYFCALWYSNHWVFGGGTKLTVL	binds	no binding (tested: 155 ng/mL)	binding result [1]: binds; binding result [2]: binds
5F3D11 (antibody, V domains shown) VH: not shown VL: DVVMTQTPLSLPVSLGDQASISCRSSQSLVHSNGNTYLHWYLQKPGQSPKLLIYKVSNRFSGVPDRFSGSGSGTDFTLKISRVEAEDLGVYFCSQSTHVPPTFGGGTKLEIK	binds	–	–
biotinylated-2H2F3 (antibody, V domains shown) VH: QVQLQQSGAELVRPGVSVKISCKGSGYTFTDYAMHWVKQSHAKSLEWIGIISTYYGNASYNQKFKGKATMTVDKSSSTAYMELARLTSEDSAIYYCARVPYYGSSYAMDYWGQGTSVTVSS VL: DVLMTQTPLSLPVSLGDQASISCRSSQNIVHSDGNTYLEWYLQKPGQSPKLLIYKVSNRFSGVPDRFSGSGSGTDFTLKISRVEAEDLGVYYCFQGSHVPWTFGGGTKLEIK	–	–	binding result [3]: binds; binding result [4]: binds
